From patent CN109467603A (BIOCELLS BEIJING BIOTECHNOLOGY CO LTD, dated 2019)

What was measured:
T细胞表面PD-1 (human) [1] = target: T细胞表面PD-1 (human) (UniProt Q15116); experiment: flow cytometry, MNC cultured alone 3 days, no BXOS antibody
T细胞表面PD-1 (human) [2] = target: T细胞表面PD-1 (human) (UniProt Q15116); experiment: flow cytometry, MNC co-cultured with DC, no BXOS antibody
[3] = target: 生物素化PD-1 (PD-1:PD-L1抑制剂筛选试剂盒, AcroBiosystems，EP-101) (UniProt Q15116); experiment: competition ELISA, PD-L1 coated, biotinylated PD-1; positive control antibody
[4] = target: T1, 人PD-1重组蛋白(Acro Biosystems，PD-1-H5221) (human, UniProt Q15116 25-167); experiment: phage ELISA on coated human PD-1 recombinant protein
T1 construct: Bought
T1 sequence (Q15116 25-167 limits assumed): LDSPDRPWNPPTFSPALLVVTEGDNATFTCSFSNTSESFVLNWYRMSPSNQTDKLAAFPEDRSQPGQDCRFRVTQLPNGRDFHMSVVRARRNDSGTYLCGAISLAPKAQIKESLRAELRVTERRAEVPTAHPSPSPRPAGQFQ

Row | Molecule | binding result [4] | other results
1 | 商品化的抗PD-1的流式抗体PD-1-PE(biolegend，329906) | – | PD-1表达量 (% of T cells stained by PD-1-PE) (T细胞表面PD-1 (human) [1]): 26.2 %; PD-1表达量 (% of T cells stained by PD-1-PE) (T细胞表面PD-1 (human) [2]): 32.6 %
2 | 阳性对照αPD-1单克隆抗体:Anti-PD1mAb，Human(IgG4)Lot No.B52-63NS1-AS,ACRO Biosystems (antibody) | – | 阻断率 [3]: 70.7 %
3 | scFv1 (scFv) scFv: QVQLVQSGGDLVKPGGSLRLSCATSGFTFSTYNMHWVRQAPGKGLEWVSSISRSSDYIYYADSVKGRFTMSRDNAKTSLYLQMNSLRADDTAVYYCARDSWIYDGSGYSSDAFDIWGQGTMVTVSGGGGSGGGGSGGGGSEIVLTQSPATLSLSPGERATLSCRASQSISSYLSWYQQKPGQAPRLLIYDASNRATGIPARFSGGGSGTDFTLTISSLEPEDFAVYYCQQRNSWPLTFGGGTKVEIKR | binds | –
4 | scFv2 (scFv) scFv: QVQLVESGGGVVQPGKSLRLSCAASGFSFRNYDMHWVRQAPGRGLEWVAVTWYDGSNKYYADSVKGRFTISRDNSKNTVYLHINSLRAEDTAVYYCAKDQAHYYNYSTGHFSYYFDSWGQGTLVTVSGGGGSGGGGSGGGGSEIVLTQSPATLSLSPGQRATLSCRTSQTIRKHLAWYQQKPGQAPRLLVYDISSRATGIPARFSGSGSGTDFTLTISSLQPDDFATYYCQRYDTYPRTFGQGTKVEIKR | binds | –
5 | scFv3 (scFv) scFv: QVQLVQSGAEVKKPGSSVKVSCKASGGTFSSYAISWVRQAPGQGLEWMGRIIPILGIANYAQKFQGRVTITADKSTSTAYKELSSLRSEDTAVYYCAAPLPKNGVYPWGQGTLVTVSSGGGGSGGGGSGGGGSGGGGSEIVMTQSPATLSSSPGERVTLSCRASQSVTSHLAWYQQRPGQAPRLLIYDASKRATGIPARFSGSGSGTDFTLTISSLEPEDFATYYCLQDYRYPRTFGQGTKVEIKR | binds | –
6 | scFv4 (scFv) scFv: QVQLVQSGGGLVKPGGSLRLSCVASGFTFSNSGMHWVRQAPGKGLEWVAVIWYDGSKRYYADSVKGRFTISRDNSKNTLFLQMNSLRAEDTAVYYCATNDDYWGQGTLVTVSSGGGGSGGGGSGGGGSEIVMTQSPATLSLSPGERATLSCRASQSVSSNLAWYQQKPGQAPRLLIYDASTRATGIPARFSGSGSGTDFTLTISSLQPEDFATYYCLQDYNYPRTFGQGTKLEIKR | binds | –
7 | scFv5 (scFv) scFv: QVQLVESGGGVVQPGRSLRLDCKASGITFSNSGMHWVRQAPGKGLEWVAVIWYDGSKRYYADSVKGRFTISRDNSKNTLFLQMNSLRAEDTAVYYCATNDDYWGQGTLVTVSSGGGGSGGGGSGGGGSEIVMTQSPATLSLSPGERATLSCRASQSVSSSVSWYQQKLGQAPRLLIYDASNRATGIPARFSGSGSGTDFTLTISSLEPEDFAVYYCQQRSKWPLTFGAGTKVEIKR | binds | –
